Results taken from the supplement of paper PMC10724198.
± gives the standard deviation of the averaged measurements.

System: Saccharomyces cerevisiae
Assay: protein stability index of tFT-peptide fusion (C-terminal peptide) (PSI (0-1 scale)); higher = more stable (slower turnover)
Conditions: genetic background: wild type; temperature: 30 C
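Further: PSI is a weighted mean of sequencing reads over stability bins, variants kept only with over 10 reads, mCherry proximal and sfGFP distal, peptide attached via GGGS linker.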

Sequence	protein stability index
LLRLPCHLSQAS	0.68 ± 0.035
LLRSSPPLPPPS	0.737 ± 0.029
LLSNTINRIWRN	0.658 ± 0.018
LLSSIPSLMFYY	0.667 ± 0.046
LLSSLLLDQPYR	0.6455 ± 0.0036
LLSSPPSPGFSL	0.748 ± 0.12
LLSVVLPDSSLP	0.738 ± 0.065
LLTCRPPQCLLC	0.6303 ± 0.0038
LLTGCVPVLIRK	0.707 ± 0.093
LLTLPPPRLLSL	0.629 ± 0.022
LLTSFFTLFCNT	0.657 ± 0.05
LLVREVGVERTF	0.7636 ± 0.0024
LLVSVHFSPPLY	0.5515 ± 0.0023
LMFGDPIEANKE	0.67 ± 0.01
LMGASAAFIKKG	0.601 ± 0.067
LMYPGTSPLSPH	0.711 ± 0.092
LNEVSLLSPAPL	0.64 ± 0.057
LNHSLLHILSRV	0.656 ± 0.022
LNLSIRDVTSSG	0.657 ± 0.013
LNPLAILCSSVF	0.617 ± 0.037
LNSSRLSFFCLE	0.689 ± 0.079
LNWISKQVTEKH	0.676 ± 0.013
LPAFAPLCLPTL	0.703 ± 0.02
LPASWSRVSFAG	0.6825 ± 0.0034
LPCPSFPSLPFL	0.646 ± 0.1
LPGFPGPSCICH	0.703 ± 0.21

Sequence	protein stability index
LPHPRPPQSPPQ	0.7 ± 0.03
LPLLLPFRTPDF	0.693 ± 0.015
LPLLPLPSLSPP	0.713 ± 0.035
LPLLRWASPRGF	0.685 ± 0.0042
LPLPPLPPGMLS	0.747 ± 0.073
LPLPPPSPFPPL	0.691 ± 0.015
LPLQPSSNLTCL	0.70856 ± 0.00024
LPLSLPTPPALD	0.716 ± 0.075
LPPATMFFISAS	0.558 ± 0.019
LPPCPLFPPVHF	0.757 ± 0.1
LPPCPPGGRRSR	0.706 ± 0.036
LPPFLLPPFFSI	0.718 ± 0.055
LPPFPPPSAPPS	0.792 ± 0.023
LPPHRSSTPPPA	0.644 ± 0.02
LPPLLDSPPCSP	0.733 ± 0.04
LPPLPPIAPPPP	0.8126 ± 0.0041
LPPLPPPSPFPS	0.762 ± 0.074
LPPLPPSPPPLP	0.685 ± 0.024
LPPLPRPLLLPR	0.661 ± 0.044
LPPPAPRSHCPL	0.725 ± 0.098
LPPPLPPCPSGP	0.77 ± 0.048
LPPPPFPPPKPF	0.683 ± 0.0084
LPPPPLPPHPPL	0.748 ± 0.067
LPPPPLPQAPPT	0.702 ± 0.075
LPPPPPCPPSPL	0.671 ± 0.024
LPPPPPPPASPD	0.699 ± 0.058

Sequence	protein stability index
LPPPPPPPPLPH	0.705 ± 0.1
LPPPPTCYDHPL	0.676 ± 0.052
LPPPPTFPPPRS	0.8307 ± 0.0063
LPPPSAPFPLPP	0.743 ± 0.026
LPPPSPLPNSPL	0.716 ± 0.13
LPPPSPPSSAPP	0.734 ± 0.049
LPPPSPPTPPFP	0.691 ± 0.018
LPPPSPTPPPPP	0.683 ± 0.019
LPPRPPRPPPSP	0.666 ± 0.019
LPPSLPPRLPPP	0.658 ± 0.04
LPPSPILFPASP	0.754 ± 0.072
LPPSPPLPCPLL	0.75 ± 0.048
LPPSPRLSFSPP	0.701 ± 0.034
LPPSRSLLPPRP	0.6531 ± 0.0059
LPPTPSSRGPHS	0.669 ± 0.019
LPQPQPPVPPPL	0.7209 ± 0.0042
LPRPAPPIRPRT	0.74 ± 0.013
LPRPLSPPLPSP	0.702 ± 0.042
LPRPPPPPALPT	0.66 ± 0.087
LPRPPPRYLPPL	0.711 ± 0.059
LPRRLLFSYPTF	0.647 ± 0.02
LPSAPLLPLLRP	0.68 ± 0.041
LPSASPPSPPPP	0.652 ± 0.037
LPSLSSFALHMP	0.685 ± 0.018
LPSPPVSIPYPS	0.671 ± 0.029
LPSPSGSPVPFL	0.771 ± 0.041

Sequence	protein stability index
LPSPSSTLSPLR	0.674 ± 0.059
LPSPTTNLFKPN	0.711 ± 0.0091
LPSSCVLHMFFP	0.7111 ± 0.0024
LPTLPGWKASCL	0.674 ± 0.032
LPTPFKSSPSAA	0.674 ± 0.024
LPVGYVCGLWVG	0.543 ± 0.038
LPVSGLRAAGAM	0.7154 ± 0.0034
LQALQTKPSQAL	0.688 ± 0.083
LQDLPRLHALPN	0.727 ± 0.086
LQHRHSTSPRPT	0.657 ± 0.037
LQRVPTDAVPDC	0.7074 ± 0.0044
LQWSPQAELEGT	0.712 ± 0.043
LRCVPAVFFACK	0.647 ± 0.045
LRERKVYLVKIK	0.575 ± 0.006
LRETDGSGQYVR	0.686 ± 0.014
LRFWCFGDVCPV	0.754 ± 0.057
LRGACWLARTRT	0.677 ± 0.018
LRGEGPGRKGGA	0.67 ± 0.05
LRGPRTSTPLST	0.714 ± 0.036
LRGVACCSPILG	0.631 ± 0.036
LRHWKALVTYLL	0.566 ± 0.052
LRIGTCYCGVAW	0.814 ± 0.049
LRLLYGYWGKFL	0.547 ± 0.0072
LRLRGCSATVPG	0.752 ± 0.063
LRLSSFSFSRLS	0.701 ± 0.16
LRNCSVSGSIEW	0.699 ± 0.019

Sequence	protein stability index
LRPFSRVLRARS	0.628 ± 0.019
LRPLPPRHPPAP	0.624 ± 0.069
LRPPPPPAQPFV	0.69 ± 0.033
LRPSLPCPPFCP	0.641 ± 0.057
LRPTPLPRPSPA	0.691 ± 0.024
LRQEVVRPEWYM	0.66 ± 0.054
LRRKSLHFSFPF	0.618 ± 0.054
LRRSRQGGSGRR	0.6 ± 0.044
LRRVGKLRESGS	0.688 ± 0.018
LRSIQVHLGSTA	0.6992 ± 0.0043
LRSPAILFSFAF	0.602 ± 0.043
LRSPGSHIVRLT	0.569 ± 0.035
LRVRLSVLLPLD	0.578 ± 0.0093
LRVTPYTPRSYP	0.732 ± 0.058
LRVVWNLSSRAI	0.636 ± 0.059
LRWGLFSLAWVT	0.5437 ± 0.00065
LRYLEGWWVLRW	0.554 ± 0.063
LSALQQSSAPSI	0.691 ± 0.057
LSCSLSWFFSSV	0.679 ± 0.083
LSFFPPPLPPSS	0.71 ± 0.044
LSFHSYLSPFYL	0.664 ± 0.051
LSFLSDVRHIRE	0.643 ± 0.1
LSGWIRTLLPET	0.674 ± 0.047
LSGYTLRRIISQ	0.704 ± 0.063
LSLPPLRPPYPP	0.678 ± 0.091
LSLVSGWVIPGV	0.687 ± 0.051

Sequence	protein stability index
LSNATPAHAGKP	0.706 ± 0.13
LSPGRPPRPPRR	0.702 ± 0.041
LSPLPTPLRPNS	0.68 ± 0.025
LSPPPLPPVPSP	0.712 ± 0.015
LSPPPPPLPPPL	0.622 ± 0.12
LSPPSSPPPTPS	0.714 ± 0.076
LSSCPRIMVPIT	0.777 ± 0.11
LSSITLTYVSDF	0.781 ± 0.12
LSSLLFFLSWVV	0.529 ± 0.018
LSSLPSTFPPLP	0.692 ± 0.029
LSTCRYMLRLAY	0.5233 ± 0.0021
LSTPFFFVPLTL	0.621 ± 0.007
LSVLNTQFGFGS	0.6751 ± 0.0054
LSVQFVSQHTRV	0.664 ± 0.024
LSVSSLMFNWRS	0.707 ± 0.02
LSWLSLSSNSRL	0.798 ± 0.019
LSWSYTGVCRSE	0.69 ± 0.06
LSYCVGFFSLVG	0.6459 ± 0.0012
LSYSFGCEFLWL	0.674 ± 0.033
LTAKDSRGLFRP	0.706 ± 0.012
LTARPPTLSSPL	0.6729 ± 0.0043
LTASPPRLPPFP	0.701 ± 0.0081
LTGRAVCTDKLK	0.734 ± 0.083
LTKPPHERREKS	0.635 ± 0.019
LTLADWYRIPVI	0.558 ± 0.051
LTLCYGRLPPRL	0.771 ± 0.022

Sequence	protein stability index
LTPLPSRPPPLP	0.683 ± 0.087
LTSSLSLSFPPL	0.749 ± 0.039
LTTFLLTRIVGA	0.567 ± 0.035
LTVLGSGNLTRS	0.729 ± 0.029
LTYFCTLPATLK	0.663 ± 0.022
LVAATGRCIKKP	0.649 ± 0.061
LVAFKGNSMGRE	0.681 ± 0.019
LVALCGYTLRLR	0.487 ± 0.076
LVCMGCCVRTYT	0.608 ± 0.037
LVCPLFCSRWWV	0.674 ± 0.1
LVFGVSRRLGRG	0.65 ± 0.01
LVFHSLCFFPLS	0.694 ± 0.014
LVFREISSRHEI	0.711 ± 0.018
LVGGGEGWVVLG	0.651 ± 0.09
LVGIYYEHPISP	0.754 ± 0.13
LVGLGGCLVGLR	0.6277 ± 0.0027
LVGLVCDFVFVL	0.589 ± 0.007
LVGSGLFGWGWN	0.769 ± 0.073
LVHDQKFSCNWL	0.74 ± 0.031
LVILWDVLSVVP	0.612 ± 0.049
LVIVFDLGNMLH	0.538 ± 0.038
LVLLTRSASLLG	0.691 ± 0.094
LVLSGFSLFPVP	0.705 ± 0.034
LVLTLAPWILFD	0.6784 ± 0.0015
LVLVGISCVKGR	0.597 ± 0.02
LVMTYGFTSVSR	0.687 ± 0.07

Sequence	protein stability index
LVPWSGCSALLV	0.585 ± 0.014
LVRFRADEPRGG	0.688 ± 0.058
LVRFTCRFFVGV	0.589 ± 0.0089
LVRGRFVVFSGM	0.626 ± 0.034
LVRHCIPIIPPP	0.638 ± 0.026
LVRLVGVGLEAV	0.694 ± 0.055
LVSHVPLLPMTP	0.776 ± 0.03
LVSLPISFPASL	0.692 ± 0.035
LVSSLVSSEVYM	0.656 ± 0.019
LVTCPPPVGGPS	0.691 ± 0.0083
LVTGRVASPPLG	0.696 ± 0.043
LVTSACPVPPAR	0.5766 ± 0.002
LVVSHMSQPISM	0.64 ± 0.03
LWALPTPPPSGH	0.67 ± 0.1
LWCPLPHGVLLL	0.608 ± 0.053
LWFPLCRLVRRD	0.682 ± 0.025
LWFVGVAGFSLV	0.5715 ± 0.004
LWSIEVEKAKQK	0.708 ± 0.068
LWSSRPGFDDVW	0.6426 ± 0.0011
LWVSSGASCFIL	0.7239 ± 0.0039
